Measured values as given in paper PMC13260207.

Columns and labels:
[1] = target: recombinant PI4KIIα (lab-made) (human) (UniProt Q9BTU6); assay: MST; fluorescently labelled PI4KIIα (5 nM) constant, unlabelled ligand protein titrated; Tris-based MST buffer; Monolith NT.115 pico; no PI
[2] = target: recombinant PI4KIIα (lab-made) (human) (UniProt Q9BTU6); assay: MST; fluorescently labelled PI4KIIα (5 nM) mixed with 1 μM PI (micelles) before the ligand protein, unlabelled ligand titrated; Tris-based MST buffer; Monolith NT.115 pico

Chain of UniProt Q9BTU6 (Q9BTU6 whole entry): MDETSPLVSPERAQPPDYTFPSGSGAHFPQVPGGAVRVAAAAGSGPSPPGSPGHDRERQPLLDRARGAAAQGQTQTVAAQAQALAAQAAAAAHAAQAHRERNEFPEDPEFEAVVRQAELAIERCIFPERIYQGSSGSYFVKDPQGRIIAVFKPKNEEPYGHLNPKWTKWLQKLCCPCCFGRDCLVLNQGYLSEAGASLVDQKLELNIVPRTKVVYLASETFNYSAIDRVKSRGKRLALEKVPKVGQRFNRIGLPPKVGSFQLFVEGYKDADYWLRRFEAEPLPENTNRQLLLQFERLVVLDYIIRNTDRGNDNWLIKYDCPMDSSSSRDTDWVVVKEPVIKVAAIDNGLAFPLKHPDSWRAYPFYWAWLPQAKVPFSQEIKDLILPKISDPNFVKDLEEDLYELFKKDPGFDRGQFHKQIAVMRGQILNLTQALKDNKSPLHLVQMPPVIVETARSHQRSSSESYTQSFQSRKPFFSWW

Row | Substance | Kd [1] [nM] | Kd [2] [nM]
1 | recombinant PITPα (#ab101666, Abcam) (from UniProt Q00169 1-270) (natural protein) | 189 | 
2 | recombinant PITPβ (#LS-C794864, LSBio) (from UniProt P48739 1-271) (natural protein) | 263 | 113
